Measurements: US8357656B2, “Natriuretic peptide receptor-C agonists” (Mayo Foundation for Medical Education and Research, priority 2007, dated 2013)

How the values were obtained:
human NPR-C = target: T1, human NPR-C (Homo sapiens, UniProt P17342); test: Binding to human NPR-C; settings: FIG. 3
T1 sequence (P17342 27-541): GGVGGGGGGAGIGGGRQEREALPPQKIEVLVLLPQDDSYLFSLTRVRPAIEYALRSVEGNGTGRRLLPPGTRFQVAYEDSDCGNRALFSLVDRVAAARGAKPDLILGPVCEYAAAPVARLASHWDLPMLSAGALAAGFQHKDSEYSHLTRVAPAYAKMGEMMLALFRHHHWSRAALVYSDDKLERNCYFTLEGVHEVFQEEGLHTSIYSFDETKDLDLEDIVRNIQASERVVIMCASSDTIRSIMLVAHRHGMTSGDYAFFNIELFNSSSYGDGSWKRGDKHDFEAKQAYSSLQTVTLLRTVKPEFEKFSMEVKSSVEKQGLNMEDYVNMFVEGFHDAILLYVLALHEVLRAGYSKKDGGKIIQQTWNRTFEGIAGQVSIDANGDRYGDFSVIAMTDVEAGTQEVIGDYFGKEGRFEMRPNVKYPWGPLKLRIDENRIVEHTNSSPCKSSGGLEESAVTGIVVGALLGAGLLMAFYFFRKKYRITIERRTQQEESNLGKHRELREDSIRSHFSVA
Procedure: Human BNP and ASBNP.1 binding to human NPR-C was assessed using methods similar to those described elsewhere (Fan et al., Mol. Pharmacol., 67:174-83 (2005)).

rat NPR-A = target: T2, rat NPR-A (Rattus norvegicus, UniProt P18910); test: cGMP production in HEK293 cells stably expressing rat NPR-A; format: cell-based; settings: stimulated for 3 minutes, cGMP RIA (FIG. 1)
T2 construct: expressed in transfected cells; host or cells: HEK293 (293GCA cells)
T2 sequence (P18910 29-1057): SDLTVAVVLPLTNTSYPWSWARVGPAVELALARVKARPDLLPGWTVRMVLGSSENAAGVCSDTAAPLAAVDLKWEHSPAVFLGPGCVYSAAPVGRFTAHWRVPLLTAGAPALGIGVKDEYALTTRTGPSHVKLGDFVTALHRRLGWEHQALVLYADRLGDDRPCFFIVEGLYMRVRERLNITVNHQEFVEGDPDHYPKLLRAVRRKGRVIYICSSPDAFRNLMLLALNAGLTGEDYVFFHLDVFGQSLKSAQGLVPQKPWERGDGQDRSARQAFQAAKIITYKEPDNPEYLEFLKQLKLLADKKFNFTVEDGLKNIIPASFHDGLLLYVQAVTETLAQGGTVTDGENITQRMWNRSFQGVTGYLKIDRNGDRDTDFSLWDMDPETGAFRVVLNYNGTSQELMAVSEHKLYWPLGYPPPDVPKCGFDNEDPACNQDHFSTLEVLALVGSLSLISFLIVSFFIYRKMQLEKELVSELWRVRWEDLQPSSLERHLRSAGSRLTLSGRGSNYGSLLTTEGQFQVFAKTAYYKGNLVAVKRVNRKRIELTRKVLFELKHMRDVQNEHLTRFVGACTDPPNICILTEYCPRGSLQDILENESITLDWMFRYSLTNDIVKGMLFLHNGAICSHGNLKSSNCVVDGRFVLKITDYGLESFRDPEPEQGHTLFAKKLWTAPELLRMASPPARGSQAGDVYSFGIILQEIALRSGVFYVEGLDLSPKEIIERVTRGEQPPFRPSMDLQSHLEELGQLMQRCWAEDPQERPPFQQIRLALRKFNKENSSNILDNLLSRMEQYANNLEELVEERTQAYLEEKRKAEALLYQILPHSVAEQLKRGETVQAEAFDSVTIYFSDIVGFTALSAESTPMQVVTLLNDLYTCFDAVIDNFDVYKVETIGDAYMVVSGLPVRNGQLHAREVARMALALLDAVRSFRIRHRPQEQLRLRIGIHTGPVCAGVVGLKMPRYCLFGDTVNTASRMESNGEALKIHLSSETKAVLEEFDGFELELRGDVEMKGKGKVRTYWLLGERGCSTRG
Procedure: (§1) HEK293 cells stably expressing rat NPR-A or NPR-B were prepared using methods similar to those described elsewhere (Fan et al., Mol. Pharmacol., 67:174-83 (2005); and Bryan and Potter, J. Biol. Chem., 277:16041-16047 (2002)). The cells were maintained in Dulbecco's modified Eagle's medium (DMEM) supplemented with 10% FBS, 100 units/mL penicillin, 100 μg/mL streptomycin, and 200 μg/mL G418. The cells were plated in 48-well plates and grown to 90% confluency. On the day of the assay, the cells were incubated in serum-free medium for 4 hours. The cells were pretreated for 10 minutes at 37° C. in DMEM containing 25 mM HEPES, pH 7.4 and 0.5 mM 1-methyl-3-isobutylxanthine by aspirating the starvation medium. After pretreatment, the medium was replaced with the same medium containing the indicated concentrations of natriuretic peptides. The cells were stimulated for 3 minutes with CNP, rat BNP, human BNP, ASBNP, or ASBNP.1. The reaction was stopped by aspiration of the medium and addition of 200 μL ice-cold 80% ethanol. Cyclic GMP concentrations were estimated from an aliquot of the ethanol extract using a Perkin Elmer cGMP RIA kit without acetylation as described elsewhere (Bryan and Potter, J. Biol. Chem., 277:16041-16047 (2002); and Abbey and Potter, J. Biol. Chem., 277:42423-30 (2002)).

rat NPR-B = target: T3, rat NPR-B (Rattus norvegicus, UniProt P16067); test: cGMP production in HEK293 cells stably expressing rat NPR-B; format: cell-based; settings: stimulated for 3 minutes, cGMP RIA (FIG. 2)
T3 construct: expressed in transfected cells; host or cells: HEK293 (293GCB cells)
T3 sequence (P16067 17-1047): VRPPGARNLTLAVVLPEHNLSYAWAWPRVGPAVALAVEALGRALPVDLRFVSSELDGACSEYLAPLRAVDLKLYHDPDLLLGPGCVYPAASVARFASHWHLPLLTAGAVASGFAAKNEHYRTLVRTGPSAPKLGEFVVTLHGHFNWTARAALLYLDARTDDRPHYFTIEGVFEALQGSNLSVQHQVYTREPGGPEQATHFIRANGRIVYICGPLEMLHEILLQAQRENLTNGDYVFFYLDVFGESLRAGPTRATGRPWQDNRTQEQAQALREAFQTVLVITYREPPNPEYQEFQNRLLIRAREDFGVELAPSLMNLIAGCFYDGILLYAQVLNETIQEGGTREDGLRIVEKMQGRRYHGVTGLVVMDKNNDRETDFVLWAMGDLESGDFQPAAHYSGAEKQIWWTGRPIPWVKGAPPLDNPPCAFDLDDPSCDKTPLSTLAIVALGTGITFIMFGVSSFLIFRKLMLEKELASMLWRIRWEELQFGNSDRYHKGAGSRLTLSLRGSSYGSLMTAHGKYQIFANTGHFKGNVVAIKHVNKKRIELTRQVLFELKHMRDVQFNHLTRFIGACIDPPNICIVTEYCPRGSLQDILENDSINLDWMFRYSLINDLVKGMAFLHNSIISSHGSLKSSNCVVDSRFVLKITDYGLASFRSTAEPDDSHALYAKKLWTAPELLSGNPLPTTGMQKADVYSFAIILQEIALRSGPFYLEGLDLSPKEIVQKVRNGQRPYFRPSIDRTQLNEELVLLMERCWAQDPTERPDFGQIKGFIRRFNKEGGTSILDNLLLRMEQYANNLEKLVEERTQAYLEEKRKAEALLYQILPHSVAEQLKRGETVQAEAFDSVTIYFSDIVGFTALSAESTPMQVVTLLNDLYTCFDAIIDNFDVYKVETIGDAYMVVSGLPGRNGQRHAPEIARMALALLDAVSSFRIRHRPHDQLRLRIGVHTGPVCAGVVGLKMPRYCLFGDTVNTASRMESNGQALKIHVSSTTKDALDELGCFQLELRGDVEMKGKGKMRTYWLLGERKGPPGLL
Procedure: as §1

Substance	binding to human NPR-C (human NPR-C)	activation of cells expressing rat NPR-A (cGMP) (rat NPR-A)	activation of cells expressing rat NPR-B (cGMP) (rat NPR-B)
ASBNP.1: ASBNP.1 polypeptide that is 42 amino acid residues in length (SEQ ID NO:1) (SPKMVQGSGCFGRKMDRISSSSGLGCKGKHPLPPRPPSPIPV)	exhibited binding to human NPR-C	did not exhibit any activity	
ASBNP.2: ASBNP.2 polypeptide, 60 amino acid residues in length with an alanine at position 43 (SEQ ID NO:3) (SPKMVQGSGCFGRKMDRISSSSGLGCKGKHPLPPRPPSPIPVADTVRVTLGFVVSGNHTL)			exhibited little, if any, activity
BNP: human BNP, natriuretic polypeptide of myocardial cell origin; main form is a 32 amino acid polypeptide with a ring structure	exhibited binding to human NPR-C	activated cells expressing rat NPR-A at concentrations in the mM range	exhibited little, if any, activity
C-type natriuretic peptide [CNP]			activated cells expressing rat NPR-B
